Measured values taken from patent publication US20150147342A1 (published 2015).
Numbering of substitutions follows the chain as printed.

B1: H1H690P (antibody, V domains shown)
VH: EVQLVESGGGLVQPGESLRLSCAASGFTFSSYAMSWVRQGPGKGLEWVSSITGSGDTTYYADSVKGRFTISRDNSKNTLYLHMNSLRAEDTAVYYCAKDFLDYSTYLAFDLWGQGTMVTVSS
VL: EIVLTQSPATLSLSPGERATLSCRASQSVSSYLTWYQQKPGQAPRLLSYDASNRATGIPARFSGSGSGTDFTLTISSLEPEDFAVYYCQQRSNWPLTFGGGTKVEIK
notes: Fully human antibody, human IgG1
B2: H1H693P (antibody, V domains shown)
VH: B1 VH with T52S, D56G, K65E
VL: DIQMTQSPSSVSASVGDRVTITCRASQGISSWLAWYQQKPGKAPKLLIYAASSLQSGVPSRFSGSGSGTDFTLTISSLQPEDFATYYCQQANSFPRTFGQGTKVEIK
notes: as for B1
B3: H1H704P (antibody, V domains shown)
VH: QVQLVESGGDVVQPGRSLRLSCAASGFTFSSYGMHWVRQAPGKGLEWVAIIWYDGSNKYYADSVKGRFTISRDNSKNTLYLQMNSLRVEDTAVYSCARDFSISSRHFDYWGQGTLVTVSS
VL: DIQMTQSPSSLSASVGDRVTITCRASQAINNYLAWFQQKPGKAPKSLIYATSNLQSGVPSQFSGSGSGTDYTLTISSLQPEDFATYYCQQYYIYPITFGQGTRLEIK
notes: as for B1
B4: H1H706P (antibody, V domains shown)
VH: QVQLVESGGGVVQPGRSLRLSCAASGFTFSSYGMHWVRQAPDKGLEWVAVKWDDGSNKYYADSVKGRFTISRDNSKNTLYLQMNSLRAEDTAVYYCAREGPYDFYSGYGAFDIWGQGTMVTVSS
VL: B2 VL with V11L, S31N, W32Y, Y36F, L46S, R61K, A91Y, F94Y
notes: as for B1
B5: H1H707P (antibody, V domains shown)
VH: B4 VH
VL: not shown
notes: as for B1
B6: H1H691P (antibody, V domains shown)
VH: EVQLVESGGGLVQPGRSLRLSCAASGFTFDDYAMHWVRQAPGKGLEWVSGISWNSGDIGYADSVKGRFTISRDNAKNSLYLQMNSLRAQDTALYYCAKAYGDYYYFYGMDVWGQGTTVTVS
VL: EIVLTQSPGTLSLSPGERATLSCRASQSVSSSYLAWYQQKPGQAPRLLIFSASSRATGIPDRFSGSGSGTDFTLTISRLEPEDFAVYYCQQYDNSLTFGGGTKVEIK
notes: as for B1
B7: H1H695P (antibody, V domains shown)
VH: QVQLVESGGGVVQPGRSLRLSCAASGFTFSSYGMHWVRQAPGKGLEWVAVMWYDETNKYYADSVKGRFTISRDNSKNTLYLQMNSLRAEDTAVYYCARYSGYEDYYHGMDVWGQGTTVTVS
VL: EIVMTQSPATPSVSPGERATLSCRASQSISSNLAWYQQKPGQAPRLLIYGASTRATGIPARFSGSGSGTEFTLTISSLQSEDFAVYYCQHYNNWITFGQGTRLEIK
notes: as for B1

target: T1, Human Ang-2FD-hFc (human); test: ELISA, 16.67 nM antibody + 2 nM human Ang-2FD-hFc, on coated hTie-2-mFc (competitor)
T1 construct: Order of the pieces follows the name (Ang-2FD, then hFc); also called Dimeric Human Ang-2FD; human Ang-2FD protein conjugated to human IgG
Protocol: (§1) Tie-2 is a natural receptor for Ang-2. Anti-Ang-2 antibodies were tested for their ability to block Ang-2 binding to human Tie-2 (hTie-2). hTie-2-mFc (a chimeric construct consisting of human Tie-2 conjugated to mouse IgG; SEQ ID NO:525) was coated onto 96-well plates at a concentration of 2 μg/ml and incubated overnight followed by washing four times in wash buffer (PBS with 0.05% Tween-20). The plate was then blocked with PBS (Irvine Scientific, Santa Ana, Calif.) containing 0.5% BSA (Sigma-Aldrich Corp., St. Louis, Mo.) for one hour at room temperature. In a separate plate, purified anti-Ang-2 antibodies, at a starting concentration of 50 nM, were serially diluted by a factor of three across the plate. […] The antibody/Ang-2FD-Fc mixture was then added to the plate containing hTie-2-mFc and incubated for one hour at room temperature.

Binder | Percent Blocking of Ang-2FD Binding to Tie-2 [%]
B1 | 97.2
B2 | 73.9
B3 | 97
B4 | 97.1
B5 | 95.1
B6 | 97.4
B7 | 98.4

target: T2, Monkey Ang-2FD-hFc (monkey (Macca fascicularis)); test: ELISA, 16.67 nM antibody + 2 nM monkey Ang-2FD-hFc, on coated hTie-2-mFc (competitor)
T2 construct: Order of the pieces follows the name; also called Dimeric Monkey Ang-2FD
Protocol: as §1

Binder | Percent Blocking of Ang-2FD Binding to Tie-2 [%]
B1 | 99.6
B4 | 99.8
B6 | 99.8

target: T3, Mouse Ang-2FD-hFc (mouse (Mus musculus)); test: ELISA, 16.67 nM antibody + 8 nM mouse Ang-2FD-hFc, on coated hTie-2-mFc (competitor)
T3 construct: Order of the pieces follows the name; also called Dimeric Mouse Ang-2FD
Protocol: as §1

Binder | Percent Blocking of Ang-2FD Binding to Tie-2 [%]
B1 | 98
B2 | 63.6
B3 | 41.8
B4 | 95.9
B5 | 93.8
B6 | 96.7
B7 | 97.6
